Laboratory results taken from CN1737011A (SHANGHAI MEI EN BIO TECH CO LT, dated 2006).

Biological target: HLA-DR10抗原 (on live Raji cells, Burkitt's lymphoma, ATCC CCL-86) (human)
Assay: radioimmunoassay with 131I-labelled antibody (5-110 ng/ml) on 10^6 live Raji cells, Scatchard plot, Ka = -(slope/n), n = 2

B1: 抗HLA-DR10的特异性嵌合单克隆抗体 (131I标记, 131I-HLA-DR10) (antibody, V domains shown)
VH: QVQLKESGPGLVAPSQSLSITCTISGFSLTSYGVHWVRQPPGKGLEWLVVIWSDGSTTYNSALKSRLSISKDNSKSQVFLKMNSLQTDDTAIYYCASHYGSTLAFASWGHGTLVTVSA
VL: DIQMTQSPASLSASVGETVTIICRASVNIYSYLAWYQQKQGKSPQLLVYNAKILAEGVPSRFSGSGSGTQFSLKINSLQPEDFGSYYCQHHYGTFTFGSGTKLEIK
modifications: 131I label by the chloramine-T method; labelled residues not stated
notes: Mouse/human chimeric IgG1 kappa made in NS0-clym cells (CCTCC C200405); also called HLA-DR10单抗; chLym抗体; not shown: human immunoglobulin gamma-1 heavy chain constant region (from plasmid pSK-γ1); human immunoglobulin kappa light chain constant region (from plasmid pSK-κ)
B1 gave a Ka of 3.36e+08 M⁻¹.
